Assay results taken from paper PMC11261448.

Target: T1, TOP-2 [R828C]::3xFLAG, Q23670
T1 chain: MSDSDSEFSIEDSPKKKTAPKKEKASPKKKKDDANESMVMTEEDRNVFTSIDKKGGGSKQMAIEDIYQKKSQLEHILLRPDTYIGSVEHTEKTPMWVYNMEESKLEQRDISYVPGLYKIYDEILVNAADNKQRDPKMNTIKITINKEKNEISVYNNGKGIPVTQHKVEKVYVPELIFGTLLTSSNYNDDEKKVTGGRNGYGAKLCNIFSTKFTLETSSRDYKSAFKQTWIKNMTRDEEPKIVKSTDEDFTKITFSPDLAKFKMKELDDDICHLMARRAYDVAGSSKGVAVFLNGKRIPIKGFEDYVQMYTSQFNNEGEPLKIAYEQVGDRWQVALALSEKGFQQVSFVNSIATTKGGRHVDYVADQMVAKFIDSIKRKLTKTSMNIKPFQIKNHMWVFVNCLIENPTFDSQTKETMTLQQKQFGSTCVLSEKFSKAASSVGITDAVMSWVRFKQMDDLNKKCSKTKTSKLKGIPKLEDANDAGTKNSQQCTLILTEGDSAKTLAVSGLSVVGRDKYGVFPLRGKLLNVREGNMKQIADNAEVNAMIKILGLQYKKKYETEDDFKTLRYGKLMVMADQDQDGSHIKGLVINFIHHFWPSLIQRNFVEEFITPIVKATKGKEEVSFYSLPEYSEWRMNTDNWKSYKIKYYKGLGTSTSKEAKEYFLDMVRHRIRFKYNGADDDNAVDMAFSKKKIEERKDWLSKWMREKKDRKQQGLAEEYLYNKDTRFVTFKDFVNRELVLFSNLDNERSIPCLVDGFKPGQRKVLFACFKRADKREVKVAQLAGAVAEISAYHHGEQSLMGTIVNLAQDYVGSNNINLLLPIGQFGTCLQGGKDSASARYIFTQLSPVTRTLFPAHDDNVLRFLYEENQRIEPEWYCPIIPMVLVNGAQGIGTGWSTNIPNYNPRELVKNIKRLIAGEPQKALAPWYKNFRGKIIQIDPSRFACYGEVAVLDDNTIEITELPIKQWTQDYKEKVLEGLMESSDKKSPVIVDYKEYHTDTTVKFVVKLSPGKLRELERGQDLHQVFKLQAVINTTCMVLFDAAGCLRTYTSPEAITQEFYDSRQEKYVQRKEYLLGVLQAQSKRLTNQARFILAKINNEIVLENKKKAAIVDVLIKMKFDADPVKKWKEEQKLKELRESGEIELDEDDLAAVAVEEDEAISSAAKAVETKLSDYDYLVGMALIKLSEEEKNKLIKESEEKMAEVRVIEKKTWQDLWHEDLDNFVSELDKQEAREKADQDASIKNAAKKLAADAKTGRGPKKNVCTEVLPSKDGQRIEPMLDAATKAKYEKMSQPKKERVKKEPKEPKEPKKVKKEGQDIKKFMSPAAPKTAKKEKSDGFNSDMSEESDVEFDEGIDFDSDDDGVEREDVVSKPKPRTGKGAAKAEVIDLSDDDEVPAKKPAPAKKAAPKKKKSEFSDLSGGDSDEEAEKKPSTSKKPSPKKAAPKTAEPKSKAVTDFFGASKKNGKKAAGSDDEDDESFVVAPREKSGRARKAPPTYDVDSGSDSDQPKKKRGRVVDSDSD
Assay: co-immunoprecipitation (anti-FLAG magnetic agarose beads) with anti-RFP immunoblot, band quantification
Details: chain shown with the change;; parent: est. 1.0; read off a plot

ratio to parent: 0.33
B1: m1; m2 TDPT-1:G117R; TOP-2:R828C (protein)
chain: MSNSDDEIQEIEAKRQKMSQEDSEVEIEILDEPEQGKLKNSSMSDEQKLHEFAIITATDEAFAQSILQDVDWDLKKALDVFYGSEAFAEARSAAVMGASSSMASSGAAVMTAEDLKRFEVSVMSWNIDGLDGRSLLTRMKAVAHIVKNVNPDILFLQEVVDRDLAPIDKLQSLYKIYYSNKGCQYYTAILVSKMFDVEKHDVIHFQNSGMYRTLQILEGSIGGLKVFLLNTHLESTREHRPQRCAQFGFCMDKVREIIAQNPGALVFFGGDLNLRDEEVSRVPDGVKDAWEAAGSDNKTKFTWDTFKNDNKQGFHGAKMRFDRLYWSGPLDKVKFTLEGRQRIRSCLCFPSDHWAINATFFA
